One series addresses human C4b (UniProt P0C0L5).
The next series has as its target soluble human C3b (UniProt P01024).

human C4b, sequence (P0C0L5 whole entry, looked up): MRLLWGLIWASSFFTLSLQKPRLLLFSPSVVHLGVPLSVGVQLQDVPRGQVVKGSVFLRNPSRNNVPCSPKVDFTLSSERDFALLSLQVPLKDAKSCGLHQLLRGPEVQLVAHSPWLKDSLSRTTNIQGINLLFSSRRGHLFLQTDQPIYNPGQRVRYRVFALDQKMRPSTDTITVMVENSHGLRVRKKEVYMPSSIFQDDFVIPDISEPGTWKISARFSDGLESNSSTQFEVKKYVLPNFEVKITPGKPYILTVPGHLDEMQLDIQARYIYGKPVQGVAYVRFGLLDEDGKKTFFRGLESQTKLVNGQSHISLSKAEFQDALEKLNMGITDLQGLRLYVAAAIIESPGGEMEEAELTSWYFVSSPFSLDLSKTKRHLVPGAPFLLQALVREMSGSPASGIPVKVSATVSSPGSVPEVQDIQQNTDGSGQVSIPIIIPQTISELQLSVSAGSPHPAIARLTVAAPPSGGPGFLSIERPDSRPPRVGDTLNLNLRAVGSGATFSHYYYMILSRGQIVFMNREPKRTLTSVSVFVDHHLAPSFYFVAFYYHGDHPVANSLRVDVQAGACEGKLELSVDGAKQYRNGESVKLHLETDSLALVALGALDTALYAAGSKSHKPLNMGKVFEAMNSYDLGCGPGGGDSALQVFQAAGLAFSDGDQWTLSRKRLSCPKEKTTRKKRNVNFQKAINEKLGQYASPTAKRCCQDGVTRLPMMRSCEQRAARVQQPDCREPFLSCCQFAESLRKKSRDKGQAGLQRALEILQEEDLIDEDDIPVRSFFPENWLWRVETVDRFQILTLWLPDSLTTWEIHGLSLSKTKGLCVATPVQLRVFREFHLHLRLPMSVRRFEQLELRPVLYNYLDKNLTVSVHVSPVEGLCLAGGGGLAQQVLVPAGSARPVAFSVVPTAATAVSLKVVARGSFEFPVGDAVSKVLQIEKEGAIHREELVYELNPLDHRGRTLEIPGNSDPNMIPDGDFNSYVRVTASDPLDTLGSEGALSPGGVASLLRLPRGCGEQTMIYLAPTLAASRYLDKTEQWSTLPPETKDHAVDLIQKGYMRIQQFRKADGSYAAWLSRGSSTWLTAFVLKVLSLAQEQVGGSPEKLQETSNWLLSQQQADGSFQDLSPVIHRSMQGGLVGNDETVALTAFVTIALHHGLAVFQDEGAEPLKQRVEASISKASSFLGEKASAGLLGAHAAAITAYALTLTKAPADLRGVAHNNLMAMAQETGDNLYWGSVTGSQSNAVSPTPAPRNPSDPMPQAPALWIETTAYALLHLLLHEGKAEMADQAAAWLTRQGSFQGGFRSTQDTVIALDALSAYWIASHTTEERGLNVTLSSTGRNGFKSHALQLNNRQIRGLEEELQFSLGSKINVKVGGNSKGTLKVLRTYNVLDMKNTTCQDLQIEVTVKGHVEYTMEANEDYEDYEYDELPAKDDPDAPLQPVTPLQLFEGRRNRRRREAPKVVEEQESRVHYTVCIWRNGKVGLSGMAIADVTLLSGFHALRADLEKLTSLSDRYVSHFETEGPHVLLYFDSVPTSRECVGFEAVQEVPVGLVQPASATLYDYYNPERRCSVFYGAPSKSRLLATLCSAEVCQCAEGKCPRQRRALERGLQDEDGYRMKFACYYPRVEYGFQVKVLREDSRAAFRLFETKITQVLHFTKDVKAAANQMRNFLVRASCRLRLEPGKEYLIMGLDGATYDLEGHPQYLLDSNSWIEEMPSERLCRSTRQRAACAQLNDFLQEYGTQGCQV
soluble human C3b, sequence (P01024 whole entry, looked up, tested part not stated): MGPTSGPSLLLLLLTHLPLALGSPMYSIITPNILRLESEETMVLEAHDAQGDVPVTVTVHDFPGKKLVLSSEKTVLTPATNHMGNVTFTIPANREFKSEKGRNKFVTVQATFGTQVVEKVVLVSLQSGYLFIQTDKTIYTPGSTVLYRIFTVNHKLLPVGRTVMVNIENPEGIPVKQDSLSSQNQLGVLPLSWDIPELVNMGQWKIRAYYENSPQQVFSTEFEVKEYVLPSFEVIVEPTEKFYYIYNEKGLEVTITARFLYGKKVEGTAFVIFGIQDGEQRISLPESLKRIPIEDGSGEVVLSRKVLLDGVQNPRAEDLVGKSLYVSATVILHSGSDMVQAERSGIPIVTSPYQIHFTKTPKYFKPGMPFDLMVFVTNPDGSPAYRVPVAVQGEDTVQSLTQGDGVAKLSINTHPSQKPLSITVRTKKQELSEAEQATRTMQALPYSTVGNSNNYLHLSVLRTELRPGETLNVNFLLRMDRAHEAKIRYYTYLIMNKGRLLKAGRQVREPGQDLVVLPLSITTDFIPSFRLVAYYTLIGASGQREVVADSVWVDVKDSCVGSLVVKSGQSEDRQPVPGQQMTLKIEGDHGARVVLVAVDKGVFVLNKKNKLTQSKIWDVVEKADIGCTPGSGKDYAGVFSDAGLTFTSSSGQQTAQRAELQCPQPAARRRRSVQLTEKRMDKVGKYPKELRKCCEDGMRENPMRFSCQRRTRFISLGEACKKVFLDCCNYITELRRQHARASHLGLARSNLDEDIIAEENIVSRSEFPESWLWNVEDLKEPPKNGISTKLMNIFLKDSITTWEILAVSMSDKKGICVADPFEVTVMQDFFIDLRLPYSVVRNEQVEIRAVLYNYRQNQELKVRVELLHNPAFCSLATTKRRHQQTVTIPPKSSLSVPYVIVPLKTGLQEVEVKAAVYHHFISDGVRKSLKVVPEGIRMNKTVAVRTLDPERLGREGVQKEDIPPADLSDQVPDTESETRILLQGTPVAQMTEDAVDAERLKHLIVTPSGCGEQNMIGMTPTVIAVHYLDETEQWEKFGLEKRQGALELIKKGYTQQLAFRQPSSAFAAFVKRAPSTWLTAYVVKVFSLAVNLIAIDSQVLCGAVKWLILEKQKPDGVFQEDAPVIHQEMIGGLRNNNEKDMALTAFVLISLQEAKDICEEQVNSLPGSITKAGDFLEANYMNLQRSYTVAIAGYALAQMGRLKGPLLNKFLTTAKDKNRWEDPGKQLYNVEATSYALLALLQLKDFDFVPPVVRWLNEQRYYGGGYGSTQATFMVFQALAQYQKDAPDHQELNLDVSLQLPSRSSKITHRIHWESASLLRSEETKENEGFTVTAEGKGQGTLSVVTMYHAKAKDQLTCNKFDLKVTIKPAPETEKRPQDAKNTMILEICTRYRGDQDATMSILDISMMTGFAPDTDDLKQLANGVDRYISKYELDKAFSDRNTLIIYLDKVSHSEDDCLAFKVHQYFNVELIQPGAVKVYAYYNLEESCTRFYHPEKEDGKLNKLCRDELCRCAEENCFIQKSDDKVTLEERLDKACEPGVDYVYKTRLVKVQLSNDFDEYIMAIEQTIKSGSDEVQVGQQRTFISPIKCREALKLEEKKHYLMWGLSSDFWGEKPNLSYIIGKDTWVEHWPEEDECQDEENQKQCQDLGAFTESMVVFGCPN
Const. No. 72: HSA-GGSSGGSSGG-Cyno CFI, sequence (chain): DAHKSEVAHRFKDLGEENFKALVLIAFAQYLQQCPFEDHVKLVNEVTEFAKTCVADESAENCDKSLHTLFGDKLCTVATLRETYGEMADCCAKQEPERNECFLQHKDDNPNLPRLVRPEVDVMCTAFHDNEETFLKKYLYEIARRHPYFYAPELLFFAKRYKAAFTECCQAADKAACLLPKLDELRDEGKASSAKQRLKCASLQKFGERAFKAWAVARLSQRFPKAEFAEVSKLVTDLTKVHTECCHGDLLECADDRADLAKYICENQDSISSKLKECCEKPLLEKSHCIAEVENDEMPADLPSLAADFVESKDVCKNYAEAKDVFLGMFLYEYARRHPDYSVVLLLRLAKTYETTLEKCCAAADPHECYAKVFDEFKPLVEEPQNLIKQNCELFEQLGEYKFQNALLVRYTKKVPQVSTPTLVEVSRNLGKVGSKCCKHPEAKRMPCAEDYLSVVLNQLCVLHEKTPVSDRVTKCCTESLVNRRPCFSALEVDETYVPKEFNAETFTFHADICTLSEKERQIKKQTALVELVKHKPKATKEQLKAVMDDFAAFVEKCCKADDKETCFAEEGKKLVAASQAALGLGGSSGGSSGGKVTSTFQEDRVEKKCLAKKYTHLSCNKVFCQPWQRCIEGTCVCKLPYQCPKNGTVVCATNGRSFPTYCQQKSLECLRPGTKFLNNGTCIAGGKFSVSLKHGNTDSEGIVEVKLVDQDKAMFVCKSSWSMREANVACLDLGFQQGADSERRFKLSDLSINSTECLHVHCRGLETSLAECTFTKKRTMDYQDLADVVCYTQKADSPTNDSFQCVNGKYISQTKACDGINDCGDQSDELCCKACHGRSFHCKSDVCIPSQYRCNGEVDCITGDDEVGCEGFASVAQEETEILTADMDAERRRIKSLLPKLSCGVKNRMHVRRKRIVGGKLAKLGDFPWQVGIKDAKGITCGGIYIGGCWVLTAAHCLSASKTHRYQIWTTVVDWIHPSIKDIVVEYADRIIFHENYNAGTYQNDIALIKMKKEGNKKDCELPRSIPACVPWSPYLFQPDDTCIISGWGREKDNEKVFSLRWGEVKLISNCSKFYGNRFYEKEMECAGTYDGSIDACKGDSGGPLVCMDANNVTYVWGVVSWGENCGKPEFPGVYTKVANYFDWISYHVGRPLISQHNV

As for Const. No. 6: HSA-GGSSGG-hCFI; L307Y, the C4c ref fold with human C4b worked out at 2.98 fold. Moreover, the iC3b ref fold in the series with soluble human C3b came out at 0.63 fold.

Regarding Const. No. 72: HSA-GGSSGGSSGG-Cyno CFI, the C4c ref fold with human C4b was determined as 0.34 fold. Also, the iC3b ref fold in the series with soluble human C3b worked out at 3.17 fold.

For the substance “Const. No. 49: HSA-GGSSGG-hCFI; Δ(V565) > VY”, in the series with human C4b, the C4c ref fold turned out to be 1.47 fold. Further, the iC3b ref fold with soluble human C3b amounted to 0.15 fold.

In the case of “Const. No. 81: HSA-GGSSGG-hCFI; M186E; G187L; Y188S; Q189N; D190G; F191L; D193G”, the C4c ref fold with human C4b was 3.31 fold. Also, the iC3b ref fold in the series with soluble human C3b worked out at 0.95 fold.

As to Const. No. 32: HSA-GGSSGG-hCFI; N402R, the C4c ref fold with human C4b stood at 0.98 fold. For the same substance, the iC3b ref fold in the series with soluble human C3b was found to be 1.47 fold.

Regarding Const. No. 4: HSA-GGSSGG-hCFI; L307H, the C4c ref fold with human C4b came out at 3.55 fold. Besides, in the series with soluble human C3b, the iC3b ref fold came to 0.89 fold.

Consider Const. No. 50: HSA-GGSSGG-hCFI; E416K, for which, in the series with human C4b, the C4c ref fold was 1.23 fold. The iC3b ref fold with soluble human C3b worked out at 1.89 fold.

Regarding Const. No. 25: HSA-GGSSGG-hCFI; R62H, the C4c ref fold with human C4b came out at 0.74 fold. Besides, in the series with soluble human C3b, the iC3b ref fold turned out to be 0.29 fold.

Take “Const. No. 56: HSA-GGSSGG-hCFI; D395A; D425A”: the C4c ref fold with human C4b amounted to 0.65 fold. For the same substance, the iC3b ref fold in the series with soluble human C3b is 1.77 fold.

On to Const. No. 5: HSA-GGSSGG-hCFI; L307W, for which the C4c ref fold with human C4b was 3.89 fold. Further, in the series with soluble human C3b, the iC3b ref fold is 0.79 fold.

For the substance Const. No. 47: HSA-GGSSGG-hCFI; R484E, the C4c ref fold with human C4b was 0.93 fold. Moreover, in the series with soluble human C3b, the iC3b ref fold worked out at 0.35 fold.

Take Const. No. 45: HSA-GGSSGG-hCFI; R484A: the C4c ref fold in the series with human C4b came out at 1.3 fold. Besides, the iC3b ref fold with soluble human C3b was determined as 0.7 fold.

In the case of “Const. No. 48: HSA-GGSSGG-hCFI; Δ(V565) > VG”, the C4c ref fold with human C4b was 0.67 fold. Further, the iC3b ref fold with soluble human C3b was 0 fold.

On to Const. No. 13: HSA-GGSSGG-hCFI; S499G, for which the C4c ref fold with human C4b turned out to be 0.72 fold. In addition, the iC3b ref fold in the series with soluble human C3b is 0.34 fold.

(Values after patent US20250011379.)
